The source of these data is US20250283886A1.

In this assay the target is polypeptides with a terminal leucine residue. Description: single-molecule dwell time analysis, distribution of mean pulse durations, Leu; filtered 0.00s≤dur≤20.00s and magnitude above baseline > 15.0.

B1: S. elongatus ClpS2 (protein)
chain: MSPQPDESVLSILGVPRPCVKKRSRNDAFVLTVLTCSLQAIAAPATAPGTTTTRVRQPYPHFRVIVLDDDVNTFQHVAECLLKYIPGMTGDRAWDLTNQVHYEGAATVWSGPQEQAELYHEQLRREGLTMAPLEAA
The molecule B1 returned a mean pulse duration (value at the dashed line) of 0.35 s.
